{"source": "paper PMC10925690", "origin": "cited, not measured here", "key": {"[1]": {"biological_target": "FcγRIIIa F158 (Homo sapiens) (UniProt P08637)", "sequence (P08637 17-254)": "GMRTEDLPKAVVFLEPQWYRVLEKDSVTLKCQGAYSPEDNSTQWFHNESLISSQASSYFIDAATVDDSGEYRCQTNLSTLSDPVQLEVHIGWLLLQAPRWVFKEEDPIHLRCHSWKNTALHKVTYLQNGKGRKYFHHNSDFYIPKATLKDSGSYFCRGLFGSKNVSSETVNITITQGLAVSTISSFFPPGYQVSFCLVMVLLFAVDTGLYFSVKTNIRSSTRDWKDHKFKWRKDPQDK", "assay": "SPR", "settings": "cited from earlier work"}, "[2]": {"biological_target": "FcγRIIIa V158 (Homo sapiens) (UniProt P08637)", "sequence (P08637 17-254)": "as above", "assay": "SPR", "settings": "cited from earlier work"}}}
{"substance": "IgG1 Fc Fc (from UniProt P01857)", "values": [{"measurement": "Kd", "setting": "[1]", "value": 2.5, "unit": "µM"}, {"measurement": "Kd", "setting": "[2]", "value": 0.4, "unit": "µM"}]}
